The values that follow come from the Immune Epitope Database (IEDB).

Assay [1] addresses HLA-A*03:01. Briefly: IEDB peptide-MHC binding, purified MHC/competitive/radioactivity; filed as Kd, often an IC50 or EC50 that approximates it; ≥ and ≤ were set here for values at or beyond the usual limits of such assays. Particulars: source organism: Mammarenavirus choriomeningitidis.
The next assay concerns the target HLA-A*30:01. Described as above.
Assay [2] addresses HLA-A*31:01. The assay is described as above. The following applies: source organism: Mammarenavirus choriomeningitidis.
The target in the next assay is HLA-A*33:01. Described as above. The following applies: source organism: Mammarenavirus choriomeningitidis.
Another assay addresses HLA-A*68:01. The assay is described as above. Particulars: source organism: Mammarenavirus choriomeningitidis.
The target in assay [3] is HLA-A*01:01. Briefly: IEDB peptide-MHC binding, purified MHC/direct/fluorescence; filed as Kd, often an IC50 or EC50 that approximates it; ≥ and ≤ were set here for values at or beyond the usual limits of such assays. Particulars: source organism: Escherichia coli O157:H7.
The next assay deals with HLA-A*02:01. The assay is described as above. Particulars: source organism: Escherichia coli O157:H7.
Assay [4] deals with HLA-A*03:01. Described as above.
The next assay deals with HLA-B*07:02. Described as above. The following applies: source organism: Escherichia coli O157:H7.
A further assay addresses HLA-B*15:01. Described as above. The following applies: source organism: Escherichia coli O157:H7.
A further assay addresses HLA-B*27:05. The description is as above. The following applies: source organism: Escherichia coli O157:H7.
Another assay has as its target HLA-B*40:01. The description is as above. Particulars: source organism: Escherichia coli O157:H7.
The next assay concerns the target HLA-B*44:02. The description is as above. Particulars: source organism: Escherichia coli O157:H7.
A further assay deals with HLA-B*58:01. The description is as above. Particulars: source organism: Escherichia coli O157:H7.
The target in another assay is HLA-B*18:01. The description is as above.
For assay [5], the target named is HLA-A*01:01. Briefly: IEDB peptide-MHC binding, purified MHC/competitive/radioactivity; filed as Kd, often an IC50 or EC50 that approximates it; ≥ and ≤ were set here for values at or beyond the usual limits of such assays.
In the next assay the target is HLA-A*26:01. The assay is described as above.
The target in another assay is HLA-A*30:02. Described as above.
In another assay the target is HLA-B*08:01. The description is as above.
Another assay has as its target HLA-A*23:01. The assay is described as above. The following applies: source organism: Lassa virus Josiah.
The target of a further assay is HLA-A*24:02. The assay is described as above. The following applies: source organism: Lassa virus Josiah.
In another assay the target is HLA-A*29:02. Described as above.
The target of another assay is HLA-A*32:01. The description is as above.
In assay [6] the target is HLA-A*31:01. Kind of assay: IEDB peptide-MHC binding, purified MHC/direct/fluorescence; filed as Kd, often an IC50 or EC50 that approximates it; ≥ and ≤ were set here for values at or beyond the usual limits of such assays. Particulars: source organism: Entamoeba histolytica HM-1:IMSS.
Setting [7] is: source organism: West Nile virus.
[8] abbreviates: source organism: Dengue virus 2 Jamaica/1409/1983.
[9] abbreviates: source organism: Dengue virus 4 Philippines/H241/1956.
Setting [10] is: source organism: Dengue virus 1 Brazil/97-11/1997.
Setting [11] is: source organism: Vaccinia virus Copenhagen.
Where [12] appears, read: source organism: Vaccinia virus WR.
Setting [13] is: source organism: Lassa virus Josiah.
The mark [14] stands for this setting: source organism: Dengue virus 3 Martinique/1243/1999.
[15] abbreviates: source organism: Mammarenavirus brazilense.
[16] abbreviates: source organism: Mammarenavirus juninense.

A word on the Kd: it is a measure of binding affinity in units of concentration.

Where only a bound is given, the exact number is not on record here.

Turning to LVSFLLLAGR, the dissociation constant (Kd) was 0.803 µM with HLA-A*03:01 [1]; 9.51 µM with HLA-A*30:01 (source organism: Mammarenavirus choriomeningitidis); 0.00928 µM with HLA-A*31:01 [2]; 0.151 µM with HLA-A*33:01; 0.0364 µM with HLA-A*68:01.

For SMYQLMITI, the Kd with HLA-A*01:01 [3] was no less than 20 µM; in the assay with HLA-A*02:01, 0.827 µM; with HLA-A*03:01 [4] (source organism: Escherichia coli O157:H7) it was no less than 20 µM; with HLA-B*07:02 it was no less than 20 µM; in the assay with HLA-B*15:01 it was no less than 20 µM; with HLA-B*27:05 it was no less than 20 µM. Further, the values for the Kd with HLA-B*40:01, in the assay with HLA-B*44:02 and in the assay with HLA-B*58:01 were no less than 10 µM, no less than 20 µM and no less than 20 µM, respectively.

For IELEHLRGL, the Kd with HLA-B*18:01 (source organism: Giardia lamblia ATCC 50803) came to 0.01 µM.

In turn, REDIWCGSL yielded a Kd with HLA-B*18:01 (setting [7]) of 7.08 µM.

For GIFMTATPPG, the Kd with HLA-A*30:01 (setting [8]) turned out to be 1.22 µM.

With LTEIASLPTY, the Kd is 0.00139 µM with HLA-A*01:01 [5] (setting [9]), 0.899 µM with HLA-A*26:01 (setting [9]), 9.34 µM with HLA-A*30:01 (setting [9]) and 0.226 µM with HLA-A*30:02 (setting [9]).

As to KKMIRPQPME, in the assay with HLA-A*30:01 (setting [10]), the Kd is 8.74 µM.

VRQMEGEGVL: the Kd in the assay with HLA-B*08:01 (source organism: Dengue virus 3 Sri Lanka/1266/2000) was found to be 1.71 µM.

Sequence NEVEVITKL returned a dissociation constant (Kd) in the assay with HLA-B*18:01 (setting [7]) of 0.0063 µM.

For KTDFSNIRA, the Kd in the assay with HLA-A*30:01 (setting [11]) is 0.209 µM.

In the case of SPLSKCVVV, in the assay with HLA-B*08:01 (setting [12]), the dissociation constant (Kd) was determined as 0.0309 µM.

As to DCIMTSYQYL, the Kd in the assay with HLA-A*01:01 [5] (setting [13]) worked out at 3.86 µM; with HLA-A*23:01 it was 5.33 µM; with HLA-A*24:02, 2.31 µM; with HLA-A*26:01 (setting [13]) it was 12.6 µM; in the assay with HLA-A*29:02 (setting [13]) it was 14.2 µM; with HLA-A*30:01 (setting [13]), 4.43 µM. The dissociation constant Kd with HLA-A*30:02 (setting [13]) came to 10.4 µM; with HLA-A*32:01 (setting [13]) it was 3.04 µM.

Consider FRYVFFEII, for which the dissociation constant (Kd) in the assay with HLA-B*08:01 (setting [11]) was determined as 0.208 µM.

On to MVKPKGKVV, for which, in the assay with HLA-B*08:01 (setting [9]), the equilibrium dissociation constant (Kd) was found to be 0.0446 µM.

In the case of TTRNGEPHM, the Kd in the assay with HLA-A*30:01 (setting [8]) came out at 1.2 µM.

For LLQMENKAWL, the Kd in the assay with HLA-B*08:01 (source organism: Dengue virus 2 16681-PDK53) was 0.28 µM.

Consider LWNFIHQQR, for which the Kd with HLA-A*03:01 [4] (source organism: Entamoeba histolytica HM-1:IMSS) was no less than 20 µM; with HLA-A*31:01 [6], 0.0122 µM.

NPSFKRQII: in the assay with HLA-B*08:01 (setting [12]), the Kd was found to be 0.0195 µM.

Regarding FCSHHFHQL, in the assay with HLA-B*08:01 (setting [10]), the Kd was found to be 0.178 µM.

As for QYIFTGQPLN, the Kd with HLA-A*30:01 (setting [14]) was found to be 8.84 µM.

As for MIDNQKLSY, the Kd with HLA-A*01:01 [5] (setting [15]) was 0.00961 µM; in the assay with HLA-A*26:01 (setting [15]), no less than 34.7 µM; with HLA-A*29:02 (setting [15]) it was 0.106 µM; with HLA-A*30:01 (setting [15]), no less than 34.6 µM; with HLA-A*30:02 (setting [15]) it was 0.843 µM; with HLA-A*32:01 (setting [15]) it was no less than 61.2 µM.

In the case of ALLSRFFNM, the Kd in the assay with HLA-B*08:01 (setting [12]) was determined as 0.00296 µM.

In the case of MGLGKGWPL, the Kd in the assay with HLA-B*08:01 (setting [8]) was 0.00872 µM.

KNKIPFLLL: in the assay with HLA-A*30:01 (setting [12]), the Kd turned out to be 0.0924 µM.

As to RTRNALDNL, the Kd with HLA-A*30:01 (setting [14]) was 0.00333 µM.

As for RLKTRIRNL, the Kd with HLA-B*08:01 (setting [12]) is 0.000694 µM.

Turning to ASAHVRQSEY, the Kd is 0.00453 µM with HLA-A*01:01 [5] (setting [16]); no less than 24.7 µM with HLA-A*26:01 (setting [16]); 0.102 µM in the assay with HLA-A*29:02 (setting [16]); 2.73 µM with HLA-A*30:01 (setting [16]); 0.00579 µM with HLA-A*30:02 (setting [16]); 0.827 µM with HLA-A*32:01 (setting [16]).
